Series [1] has as its target HIV-1 Rev (Human immunodeficiency virus 1) (UniProt P04618). Briefly: filter.
Series [2] has the same target. The series is described as follows: competition. Conditions: D1/2 vs labelled RRE; 17 nM rev.

In patent publication US6153382 one finds Kd and IC50 data, which are given here for one substance.

Broadly, the Kd is the constant that tells how readily two partners part at equilibrium. Higher therefore signals a looser complex. As usually defined, the IC50 is the point on the concentration scale where inhibition reaches its midpoint. A high value points to lower potency.

As to R7 full-length RRE transcript (238 nt), the Kd in series [1] (50% RNA bound at 10 nM rev, 43 mM Tris pH 8.0, 50 mM KCl, 4 C) turned out to be 3 nM; in series [1] (Scatchard high-affinity site, 50 mM KCl), 2 nM; in series [1] (Scatchard high-affinity site, 200 mM KCl), 4 nM. This substance registered an IC50 in series [2] of 2 nM.
